Results on one substance are retold here after publication PMC2670981, “Divergence of Catalytic Mechanism within a Glycosidase Family Provides Insight into Evolution of Carbohydrate Metabolism by Human Gut Flora” (Chemistry & Biology, 2008).

For the data set, the system named is O=[N+]([O-])c1ccc(O[C@H]2O[C@H](CO)[C@@H](O)[C@H](O)[C@H]2O)c([N+](=O)[O-])c1. Kind of data set: purified protein. The settings on record: Ca2+.

A word on the Km: it is the concentration of substrate that gives half-maximal velocity. One may read the kcat as the maximal rate divided by the concentration of active sites. What is called kcat/Km is the turnover number divided by the Michaelis constant. Take “BtGH97a (Bacteroides thetaiotaomicron VPI-5482)”: the Km was 140 ± 10 µM, the kcat was determined as 280 ± 7 s⁻¹ and the kcat/Km was 2e+06 M⁻¹ s⁻¹.
